From the supplement of paper PMC10567573

B1: ZNF449 (parent)
chain: TLHQRTHTEERPFKCNYCGKSFRQ

Variants of: B1
Test: protein stability index of a GFP-peptide fusion (GPS, HEK-293T) (PSI 1-6); higher = more stable
Conditions: c terminus: a fixed tail appended
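Note: lentivirally expressed fusions sorted by FACS into six bins by GFP to DsRed ratio, PSI derived from sequencing read proportions per bin multiplied by bin number.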

Question: For TLHQRTHTEERPGKCNYCGKSFRQ, which protein stability index is on record?
Answer: 2.79

Question: Which protein stability index does the source give for TLHQRTHTEERPRKCNYCGKSFRQ here?
Answer: 1.69

Question: For TLHQRTHTEERPYKCNYCGKSFRQ, which protein stability index is on record?
Answer: 2.22

Question: Which protein stability index does the source give for TLHQRTHTEERPCKCNYCGKSFRQ here?
Answer: 3.05

Question: Which protein stability index does the source give for TLHQRTHTEERPQKCNYCGKSFRQ here?
Answer: 2.92

Question: With TLHQRTHTEERPHKCNYCGKSFRQ as the variant, how does the protein stability index read?
Answer: 1.39

Question: For TLHQRTHTEERPAKCNYCGKSFRQ, which protein stability index is on record?
Answer: 2.14

Question: For TLHQRTHTEERPDKCNYCGKSFRQ, which protein stability index is on record?
Answer: 2.92

Question: Which protein stability index does the source give for TLHQRTHTEERPPKCNYCGKSFRQ here?
Answer: 2.24

Question: Which protein stability index does the source give for TLHQRTHTEERPKKCNYCGKSFRQ here?
Answer: 2.28

Question: For TLHQRTHTEERPFKCDYCGKSFRQ, which protein stability index is on record?
Answer: 2.16

Question: With TLHQRTHTEERPFKCRYCGKSFRQ as the variant, how does the protein stability index read?
Answer: 1.65

Question: Which protein stability index does the source give for TLHQRTHTEERPFKCAYCGKSFRQ here?
Answer: 2.44

Question: For TLHQRTHTEERPFKCFYCGKSFRQ, which protein stability index is on record?
Answer: 2.75

Question: Which protein stability index does the source give for TLHQRTHTEERPFKCWYCGKSFRQ here?
Answer: 2.04

Question: Which protein stability index does the source give for TLHQRTHTEERPFKCQYCGKSFRQ here?
Answer: 2.98

Question: With TLHQRTHTEERPFKCSYCGKSFRQ as the variant, how does the protein stability index read?
Answer: 3.03

Question: Which protein stability index does the source give for TLHQRTHTEERPFKCMYCGKSFRQ here?
Answer: 2.1

Question: With TLHQRTHTEERPFKCCYCGKSFRQ as the variant, how does the protein stability index read?
Answer: 1.73

Question: With TLHQRTHTEERPFKCGYCGKSFRQ as the variant, how does the protein stability index read?
Answer: 1.95

Question: Which protein stability index does the source give for TLHQRTHTEERPFKCHYCGKSFRQ here?
Answer: 1.93

Question: Which protein stability index does the source give for TLHQRTHTEERPFKCYYCGKSFRQ here?
Answer: 2.61

Question: Which protein stability index does the source give for TLHQRTHTEERPFKCEYCGKSFRQ here?
Answer: 2.13

Question: Which protein stability index does the source give for TLHQRTHTEERPFKCKYCGKSFRQ here?
Answer: 2.76

Question: For TLHQRTHTEERPFKCPYCGKSFRQ, which protein stability index is on record?
Answer: 3.32

Question: For TLHQRTHTEERPFKCLYCGKSFRQ, which protein stability index is on record?
Answer: 1.85

Question: With TLHQRTHTEERPFKCVYCGKSFRQ as the variant, how does the protein stability index read?
Answer: 2.86

Question: Which protein stability index does the source give for TLHQRTHTEERPFKCTYCGKSFRQ here?
Answer: 2.67

Question: Which protein stability index does the source give for TLHQRTHTEERPFKCIYCGKSFRQ here?
Answer: 2.27

Question: For TLHQRTHTEERPFKCNYCCKSFRQ, which protein stability index is on record?
Answer: 2.38

Question: Which protein stability index does the source give for TLHQRTHTEERPFKCNYCAKSFRQ here?
Answer: 2.14

Question: With TLHQRTHTEERPFKCNYCDKSFRQ as the variant, how does the protein stability index read?
Answer: 3.4

Question: Which protein stability index does the source give for TLHQRTHTEERPFKCNYCTKSFRQ here?
Answer: 2.4

Question: Which protein stability index does the source give for TLHQRTHTEERPFKCNYCKKSFRQ here?
Answer: 2.79

Question: Which protein stability index does the source give for TLHQRTHTEERPFKCNYCNKSFRQ here?
Answer: 2.48

Question: For TLHQRTHTEERPFKCNYCWKSFRQ, which protein stability index is on record?
Answer: 1.97

Question: Which protein stability index does the source give for TLHQRTHTEERPFKCNYCSKSFRQ here?
Answer: 2.06

Question: Which protein stability index does the source give for TLHQRTHTEERPFKCNYCLKSFRQ here?
Answer: 2.72

Question: With TLHQRTHTEERPFKCNYCEKSFRQ as the variant, how does the protein stability index read?
Answer: 2.68

Question: Which protein stability index does the source give for TLHQRTHTEERPFKCNYCFKSFRQ here?
Answer: 2.38

Question: With TLHQRTHTEERPFKCNYCYKSFRQ as the variant, how does the protein stability index read?
Answer: 2.7

Question: With TLHQRTHTEERPFKCNYCRKSFRQ as the variant, how does the protein stability index read?
Answer: 2.6

Question: For TLHQRTHTEERPFKCNYCVKSFRQ, which protein stability index is on record?
Answer: 2.09

Question: With TLHQRTHTEERPFKCNYCHKSFRQ as the variant, how does the protein stability index read?
Answer: 2.92

Question: Which protein stability index does the source give for TLHQRTHTEERPFKCNYCMKSFRQ here?
Answer: 2.73

Question: With TLHQRTHTEERPFKCNYCPKSFRQ as the variant, how does the protein stability index read?
Answer: 2.67

Question: Which protein stability index does the source give for TLHQRTHTEERPFKCNYCIKSFRQ here?
Answer: 3.3

Question: For TLHQRTHTEERPFKCNYCQKSFRQ, which protein stability index is on record?
Answer: 2.96

Question: With TLHQRTHTEERPFKKNYCGKSFRQ as the variant, how does the protein stability index read?
Answer: 3.55

Question: For TLHQRTHTEERPFKPNYCGKSFRQ, which protein stability index is on record?
Answer: 3.1

Question: With TLHQRTHTEERPFKGNYCGKSFRQ as the variant, how does the protein stability index read?
Answer: 3.43

Question: For TLHQRTHTEERPFKDNYCGKSFRQ, which protein stability index is on record?
Answer: 3.87

Question: Which protein stability index does the source give for TLHQRTHTEERPFKVNYCGKSFRQ here?
Answer: 2.67

Question: Which protein stability index does the source give for TLHQRTHTEERPFKQNYCGKSFRQ here?
Answer: 3.37

Question: For TLHQRTHTEERPFKANYCGKSFRQ, which protein stability index is on record?
Answer: 2.49

Question: With TLHQRTHTEERPFKWNYCGKSFRQ as the variant, how does the protein stability index read?
Answer: 2.59

Question: For TLHQRTHTEERPFKINYCGKSFRQ, which protein stability index is on record?
Answer: 3.13

Question: With TLHQRTHTEERPFKTNYCGKSFRQ as the variant, how does the protein stability index read?
Answer: 3.29

Question: With TLHQRTHTEERPFKRNYCGKSFRQ as the variant, how does the protein stability index read?
Answer: 2.61

Question: Which protein stability index does the source give for TLHQRTHTEERPFKFNYCGKSFRQ here?
Answer: 2.98

Question: With TLHQRTHTEERPFKMNYCGKSFRQ as the variant, how does the protein stability index read?
Answer: 2.82

Question: With TLHQRTHTEERPFKSNYCGKSFRQ as the variant, how does the protein stability index read?
Answer: 3.7

Question: With TLHQRTHTEERPFKHNYCGKSFRQ as the variant, how does the protein stability index read?
Answer: 3.4

Question: For TLHQRTHTEERPFKYNYCGKSFRQ, which protein stability index is on record?
Answer: 3.26

Question: For TLHQRTHTEERPFKLNYCGKSFRQ, which protein stability index is on record?
Answer: 1.4

Question: For TLHQRTHTEERPFKNNYCGKSFRQ, which protein stability index is on record?
Answer: 3.41

Question: For TLHQRTHTEERPFDCNYCGKSFRQ, which protein stability index is on record?
Answer: 2.41

Question: For TLHQRTHTEERPFYCNYCGKSFRQ, which protein stability index is on record?
Answer: 1.93

Question: For TLHQRTHTEERPFMCNYCGKSFRQ, which protein stability index is on record?
Answer: 2.2

Question: With TLHQRTHTEERPFWCNYCGKSFRQ as the variant, how does the protein stability index read?
Answer: 2.1

Question: For TLHQRTHTEERPFCCNYCGKSFRQ, which protein stability index is on record?
Answer: 2.71

Question: With TLHQRTHTEERPFHCNYCGKSFRQ as the variant, how does the protein stability index read?
Answer: 2.31

Question: With TLHQRTHTEERPFLCNYCGKSFRQ as the variant, how does the protein stability index read?
Answer: 1.73

Question: Which protein stability index does the source give for TLHQRTHTEERPFTCNYCGKSFRQ here?
Answer: 1.9

Question: For TLHQRTHTEERPFFCNYCGKSFRQ, which protein stability index is on record?
Answer: 2.85

Question: Which protein stability index does the source give for TLHQRTHTEERPFQCNYCGKSFRQ here?
Answer: 2.22

Question: For TLHQRTHTEERPFPCNYCGKSFRQ, which protein stability index is on record?
Answer: 2.83

Question: Which protein stability index does the source give for TLHQRTHTEERPFSCNYCGKSFRQ here?
Answer: 2.34

Question: With TLHQRTHTEERPFNCNYCGKSFRQ as the variant, how does the protein stability index read?
Answer: 1.95

Question: With TLHQRTHTEERPFICNYCGKSFRQ as the variant, how does the protein stability index read?
Answer: 2.27

Question: With TLHQRTHTEERPFKCNYCGKCFRQ as the variant, how does the protein stability index read?
Answer: 2.02

Question: Which protein stability index does the source give for TLHQRTHTEERPFKCNYCGKNFRQ here?
Answer: 2.69

Question: With TLHQRTHTEERPFKCNYCGKMFRQ as the variant, how does the protein stability index read?
Answer: 2.19

Question: For TLHQRTHTEERPFKCNYCGKGFRQ, which protein stability index is on record?
Answer: 1.82

Question: Which protein stability index does the source give for TLHQRTHTEERPFKCNYCGKEFRQ here?
Answer: 3.13

Question: With TLHQRTHTEERPFKCNYCGKIFRQ as the variant, how does the protein stability index read?
Answer: 2.26

Question: With TLHQRTHTEERPFKCNYCGKKFRQ as the variant, how does the protein stability index read?
Answer: 2.32

Question: With TLHQRTHTEERPFKCNYCGKDFRQ as the variant, how does the protein stability index read?
Answer: 2.75

Question: For TLHQRTHTEERPFKCNYCGKPFRQ, which protein stability index is on record?
Answer: 2.15

Question: With TLHQRTHTEERPFKCNYCGKQFRQ as the variant, how does the protein stability index read?
Answer: 2.27

Question: Which protein stability index does the source give for TLHQRTHTEERPFKCNYCGKLFRQ here?
Answer: 3.6

Question: For TLHQRTHTEERPFKCNYCGKFFRQ, which protein stability index is on record?
Answer: 1.68

Question: With TLHQRTHTEERPFKCNYCGKHFRQ as the variant, how does the protein stability index read?
Answer: 2.58

Question: For TLHQRTHTEERPFKCNYCGKAFRQ, which protein stability index is on record?
Answer: 1.92
